Reference: the nanobody polyreactivity screen of Harvey et al. (2022)

Assay: yeast display, Sf9 membrane polyspecificity reagent, FACS + sequencing; frameworks hold sequencing errors
Method in brief: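 Sorting gates, low and high (top ~1%), were placed on anti-HA fluorescence to track expression and on streptavidin fluorescence to track reagent binding. A clone's polyreactivity label is taken from the gate it came out of. The reagent was 10% biotinylated, detergent-solubilized Sf9 membrane, applied for 1 hour at 4 °C to galactose-induced yeast display cells.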

Sequence	polyreactivity (PSR sort gate)
QVQLVESGGGLVHAGGSLRLSCAASGSIFNYYAMGWYRQAPGKERELVAAISYGTGSTYYADSVKWRFTISRDNAKNTDYLQMNSLKPEDTAVYYCAADTRYGYGYWGQGTQVTVSS	high polyreactivity
QVQLVESGGGLVQAGGSLRLSCAASGRISESNDMGWYRPAPGKERELVAAISSSGGSTYYADSVKGRFTISRDNAKNTVYLQMNSLKPEDTAVDYCNAVYYRTVLKIGVYEYDYWGQGTQVTVSS	low polyreactivity
QVQLVESGGGLVQAGGSLRLSCAASGSIIARYAMGSYRQAPGKERELVATITRGGSTNYADSVKGRFTISRDNAKNTVYLQMNSLKPEDTAVYYCARTSYGRLDYWGQGTQVTVSS	low polyreactivity
QVQLVESGGGLVQAGGSLRLSCAASGITFGPYAMGWYRQAPGKERELVAAITWGGGSTYYADSVKGRFTISRDNAKNTVYLQMNSLKPEDTAVYYCNAEGSTTSRYLPYDYWGQGTQVTVSS	low polyreactivity
QVQLVESGGGLFQAGGSLRLSCAASGFIFTGYAMGWYRQAPGKASELVAVISYSAGSTYYADSVKGRFTISRDNAKNTVYLQMNSLKPEDTAVYYCAADHGKNLTYDYWGQGTQVTVSS	high polyreactivity
QVQLVESGGGLVQAGGSLRLSCAASVITFSYNAMGWYRQAPGKERELVAAISSNSDSTYYADSVKGRFTISRDIAKNTVYLQMNSLKPVDTAVYYCAADTPDAPDYSGFYYWGQGTQVTVSS	low polyreactivity
QVQLVESGGGLVQAGGSLRLSCAASGFILDYNTMGWYRQAPGKERELVAAISSSGDTTYYADSVKGRFTISRDNAKNTVYLQMNSLKPEDTAVYYCGREYGDGYEYWGQGTQVTVSS	low polyreactivity
QVQLVESGGGLVQAGGSLRLSCAASGSIYRYTMGWYRQAPGKERELVASISLSGGRTYYADSVKGRFTISRDNAKNTVYLQMNSLKPEDTAVYDCGTDNRYRSSGQWIRRGYWGQGTQVTVSS	high polyreactivity
QVQLVESGGGLVQAGGSLRLSCAASGRIFDTYAMGWYSQAPGKERELVASISIDGSTYYADSVKGRFTISRDNAKNTVYLQMNSLKPEDTAVYYCNADGRYYTVRFEYWGQGTQVTVSS	low polyreactivity
QVQLVESGGGLVQAGGSLRLSCAASGSTFKRYAMGWYRQAPGKERELVASISQRGGTTYYADSVKGRFTISRDNAKNTVDLQMNSLKPEDTAVYYCAKGFGWTRTIYDYWGQGTQVTVSS	high polyreactivity
QVQLVESGGGLVQAGGSLRLSCAASGLIFAGNDMGWYRQAPGKERELVARITNGGGSTYYADSVKGRFTISRDNAKNTVYLQMNSLKPEDTAVYYCNAGRSSGYSYDSWGPGTQVTVSS	low polyreactivity
QVQLVESGGGLVQAGGSLRLSCAASGSIFVEYDMGWYIQAPGKERELVADISGTGNTYYADSVKGRFTISRDNAQNTVYLQMNSLKPEDTSVYYCAAGTYFTNYWSPFVWYDYWGQGTQVTVSS	high polyreactivity
QVQLVESGGGLVEAGGSLRLSCAASGIIFVYNAMGWSRKAPGKERELVADINWRGDGTYYSDSVKGRFTISPDNAKNTVYLQMNSLKPEDTAVYYCNAVRFRPNSHYRPVGYEYWGQGTQVTESS	low polyreactivity
QVQLVESGGGLVQAGGSLRLSCAASGSNFDTYAMGWYRQAPGKESELVAAITRRAGSTYYADSVKGRFTISRDNAKYTVYLQMNSLKPEDTAVYYCAADFRYPDNYGGYDYWGQGTQVTVSS	low polyreactivity
QVQLVESGGGLVQAGGSLRLSCAASGRIIYVNAMGWYRQAPGKERELVAAISSRGGTTYYADSVKGRFTISRDNAKNTVYLQMNSLKPEDTAVYYCNAGRVRHGNDYWGQGTQVTVSS	high polyreactivity
QVHLVESGGGLVQAGGSLRLSCSASGIIFYVYTMGWYRQARGKERELVAAISGSGGSTTYADSVKGRFTISRDNAKNTVYLQMNSLKPEDTAVYYCNAKKWFYRWCKFSEFDYWGQGTQVTVSS	high polyreactivity
